{"source": "paper doi:10.1101/2025.04.30.651496", "about": "(bioRxiv, 2025)", "biological_target": "the molecule itself", "assay": "cryo-EM structure", "data": [{"protein": "untagged G3BP2 NTF2L domain (amino acids 1-139) (domain or fragment) MVMEKPSPLLVGREFVRQYYTLLNKAPEYLHRFYGRNSSYVHGGVDASGKPQEAVYGQNDIHHKVLSLNFSECHTKIRHVDAHATLSDGVVVQVMGLLSNSGQPERKFMQTFVLAPEGSVPNKFYVHNDMFRYEDEVFG", "values": [{"measurement": "stoichiometry N", "result": 2}]}]}
